# Experimental data from the supplement of paper PMC7125110.
# ± gives the standard error. This sample holds only a part of the variants without activity.
# B1: glmS ribozyme (parent)
# chain: AUAAAAGCGCCAGAACUACAGAAAUGUAGUUGACGAGGAGGAGGUUUAUCGAAUUUUCGGCGGAUGCCUCCAAA
# Variants of: B1
# Test: self-cleavage kobs at 2500 uM GlcN6P; higher = faster cleavage; RNA array
# Conditions: with glucosamine-6-phosphate
# Method in brief: (§1)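 kobs was derived by fitting per-tile medians to one- or two-exponential decays after normalising signals to baseline and to non-cleaving reference variants. Those signals came from barcoded ribozyme variants transcribed in situ by E. coli RNA polymerase on sequenced MiSeq chips, followed through a hybridised Cy3 probe at 37 °C and imaged over ~14 h. Glucosamine-6-phosphate (40 μM to 10 mM) in HEPES/KCl/Mg(OAc)2 buffer was flowed in. Weighted Michaelis–Menten fits across concentrations then gave kcat and KM.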
row,Variant,self-cleavage kobs at 2500 uM GlcN6P [s⁻¹]
1,G29A G43C G60C,< 1e-05
2,U46A A52G G63U C67G,< 1e-05
3,G9C C10U A36U A48U C71G,< 1e-05
4,A15G G32C G37U C70A,0.000633 ± 0.00028
5,U30G U46C C68U,8.16e-05 ± 1.7e-05
6,A6C A36G C61G G66A,< 1e-05
7,A15G G32U C71G,8.85e-05 ± 2.5e-05
8,U31C G59A G66U,< 1e-05
9,A6G C11G U69G,7.2e-05 ± 2.9e-05
10,U56G G66C C71U,0.000269 ± 5.5e-05
11,A6C A12G U55C C70A,< 1e-05
12,C11U G40A U49C G59C,< 1e-05
13,C16A U55A G59C C67U C70G,9.74e-05 ± 3.6e-05
14,A14G C16A U45C G66C,0.000167 ± 3.4e-05
15,A12U A14U A33C C50U,< 1e-05
16,A15U U45A U57C,4.29e-05 ± 1.9e-05
17,U30A U46G C68G,0.000143 ± 6.7e-05
18,A6G G38A G40A G60C,< 1e-05
19,A15U G35U G38U U49G U54A,< 1e-05
20,G7A U31A G44C,< 1e-05
21,A39G A42U U55G U57C G62A,< 1e-05
22,C16G U31G A42G,0.000761 ± 0.0003
23,A14U G32U C71A,4.64e-05 ± 2e-05

row,Variant,self-cleavage kobs at 2500 uM GlcN6P [s⁻¹]
1,C34A G38U G40A G44C U55C C70G,< 1e-05
2,U55A U56A G66C,0.000134 ± 3.4e-05
3,A14C A15G G62C C67A,< 1e-05
4,A6G U31C A36G A42U,< 1e-05
5,A36U G51U G63U,< 1e-05
6,A6G A48G C71A,< 1e-05
7,U31C A36C G63U C68A,0.000118 ± 4e-05
8,A53G C61G G62A,< 1e-05
9,C8A A14G A64U,< 1e-05
10,A14U A15U C16U,5.74e-05 ± 2.3e-05
11,C34G G43C A53U U54A,< 1e-05
12,A6G G13U G40A C71U,< 1e-05
13,U31C U55A G63C U69G,0.000106 ± 3.8e-05
14,C11U A39U U49A U69C,< 1e-05
15,U45C U46C C70A,0.000116 ± 4.4e-05
16,C8G A33C C34U U46G U65C,< 1e-05
17,C16U U45G U54G,0.0032 ± 0.001
18,A14U U30A C71G,5.1e-05 ± 1.2e-05
19,U30G A33G A42G G43U C70A,< 1e-05
20,C34U U47A G59U A64C C70U,< 1e-05
21,A15G U31A A53G,0.01 ± 0.0031
22,A6C G44U U54G U57C,< 1e-05
23,A6U A12U U54G,0.000203 ± 6e-05

row,Variant,self-cleavage kobs at 2500 uM GlcN6P [s⁻¹]
1,G9C C10U A15G U69G,< 1e-05
2,C16U G32A,0.00201 ± 0.00037
3,A6C A39C C68U,< 1e-05
4,G41C U49A U65A,< 1e-05
5,A52G U57A C58G C71U,7.76e-05 ± 2.9e-05
6,A6U C10U A12C G60A C67U,< 1e-05
7,G7C G29A A36U C71A,< 1e-05
8,G44A G51U U57A,< 1e-05
9,C11G G29U A48U G51U C71G,0.000485 ± 0.00016
10,G7A A33C C58U U65G C70G,< 1e-05
11,C10G A15G C34A G37A,< 1e-05
12,G7A G13A G40C U47G,< 1e-05
13,A15U C16G A33U U49C,< 1e-05
14,G37C G60C C67A,< 1e-05
15,C50G A52C U69C C70A,0.000257 ± 8e-05
16,A12G U45G G60U,< 1e-05
17,C8U G37U U54G,< 1e-05
18,C8A U46G U55A,< 1e-05
19,C11A U65G C70G C71A,0.000187 ± 6.3e-05
20,C16G G37U G44U U47A G51C C68A,< 1e-05
21,A14U U47A C71G,0.000172 ± 6.8e-05
22,U31A C70A,5.68e-05 ± 1.7e-05
23,C10U G32A C70U,6.3e-05 ± 3e-05

row,Variant,self-cleavage kobs at 2500 uM GlcN6P [s⁻¹]
1,G7U G44U A53U,< 1e-05
2,A15C A39G U47G A53U,0.000235 ± 8.5e-05
3,A12U G32C G40U U45C,< 1e-05
4,G37A G44A U56C C71A,< 1e-05
5,A14C A48G C70U,5.88e-05 ± 2.6e-05
6,A6G A14U U45C,< 1e-05
7,A33G U56G G59C,< 1e-05
8,A36U G40U G41C,< 1e-05
9,G7C G51U A53U G60U,< 1e-05
10,G35A G40A G66U,< 1e-05
11,A6G G9U G29U G37A U46C U56C,< 1e-05
12,G40U C61U U65A,< 1e-05
13,G13C A15G C58A,5.1e-05 ± 1.5e-05
14,C10U G26A,7.4e-05 ± 2.8e-05
15,C16G G29C A53U,0.00684 ± 0.0022
16,A53U C58G C61G C71G,0.000415 ± 0.00016
17,C8A C34G G66C,< 1e-05
18,U31G A72G,0.00235 ± 0.00096
19,A48U A53U U69C,0.000134 ± 3.4e-05
20,G29U U30A A33G G37U,< 1e-05
21,G9A A36U A53G,< 1e-05
22,G35C G40U G51A U65G,< 1e-05
23,A6U A14G U49C,< 1e-05

row,Variant,self-cleavage kobs at 2500 uM GlcN6P [s⁻¹]
1,U57A C67A C71A,0.000181 ± 4.1e-05
2,C10G G60C C61A,< 1e-05
3,U49G A53G U69G,4.58e-05 ± 1.6e-05
4,C50U G60A G63A,< 1e-05
5,A12U U31A C50G C61U,6.19e-05 ± 2.1e-05
6,G29C G59U G66C C70A,0.000112 ± 2.7e-05
7,U45A U46A A52U,8.04e-05 ± 3.5e-05
8,G38C U45C C50A G51C C67U,< 1e-05
9,G7U G13A G38U A52C A53C,< 1e-05
10,A6G A36C U55C,< 1e-05
11,G9C C16G G29U,< 1e-05
12,G7A C8G C10G G35C,< 1e-05
13,C10A G38C C58G,< 1e-05
14,A33G U47C C61G,< 1e-05
15,U2C A6C G60A,< 1e-05
16,G7A C10G G37U,< 1e-05
17,G60U C67A U69A,< 1e-05
18,U31G C68G C70G,< 1e-05
19,G37U G40A G63A,< 1e-05
20,U45C U55A U65C,4.27e-05 ± 1.2e-05
21,C34A G37U U46G U65G,< 1e-05
22,C10U A12C C70A,< 1e-05
23,G44U A52G C67U U69G,< 1e-05

row,Variant,self-cleavage kobs at 2500 uM GlcN6P [s⁻¹]
1,C10G C34A G37A G60U,< 1e-05
2,C16G U30A C71U,0.000103 ± 3.5e-05
3,A15G A64C G66A,0.000144 ± 4.8e-05
4,G9U U31A C67A C70U,< 1e-05
5,A14U G32U A53G,0.000242 ± 7.5e-05
6,G40A G41C A42C U49C,< 1e-05
7,C16U A48G A53G,9.32e-05 ± 2.7e-05
8,C34A G35U U55G,< 1e-05
9,C34G G59A,< 1e-05
10,G7A A12G A15U G44U U45A A53C,< 1e-05
11,A14C A42G G43U C70A,< 1e-05
12,U31G C34G A64G C67G,< 1e-05
13,C8A A12C C68U,< 1e-05
14,C8G G9U A14U A15U A64G C70U,< 1e-05
15,A14U A33U A36C,< 1e-05
16,G29A G32C A64U,< 1e-05
17,C10A G29C A42G U55C U56C C70U,< 1e-05
18,U31C A48G G63C C67U,< 1e-05
19,G35C G37A U49A A52G A53U U56G C61G,< 1e-05
20,A15U G44C A64G,< 1e-05
21,G41U U47G U49A G66C C71U,< 1e-05
22,A15G A64C C71U,7.46e-05 ± 1.9e-05
23,C10G G32U G62U U65G,< 1e-05

row,Variant,self-cleavage kobs at 2500 uM GlcN6P [s⁻¹]
1,C16G G40C U45G,6.01e-05 ± 2.1e-05
2,G7A C50G G63C,0.000242 ± 7.3e-05
3,A14C U31A A42C A48G C71G,< 1e-05
4,G43C U56A G62A,< 1e-05
5,A15G A52U C70U,0.000255 ± 6.5e-05
6,A6G A14U U30C A48U C67G C68G,7.37e-05 ± 3e-05
7,G9A A33G G43C,< 1e-05
8,G43A A53G G60U C70U,< 1e-05
9,G13C G38U U47A C70G,< 1e-05
10,C16U G32U U46G,6.51e-05 ± 2.5e-05
11,G32U U54C G59C C68U,< 1e-05
12,U31C G35A G66U C71A,< 1e-05
13,U46A A64G G66A C71G,6.58e-05 ± 2.6e-05
14,G9C A48G C67U,< 1e-05
15,C34U A39U G41C U69G,< 1e-05
16,G37C A52G U56G,< 1e-05
17,A12U G35A A52C C58G C68G,< 1e-05
18,G44U A52C U56C G63A C67U,< 1e-05
19,A12G G32A G60U,< 1e-05
20,G21U U57C,9.36e-05 ± 1.4e-05
21,G7C A52U U54G C61U,< 1e-05
22,C8G C16A G43U G44U G62A,< 1e-05

# Variants of: B1
# Test: self-cleavage kobs at 10000 uM GlcN6P; higher = faster cleavage; RNA array
# Conditions: with glucosamine-6-phosphate
# Method in brief: as §1
row,Variant,self-cleavage kobs at 10000 uM GlcN6P [s⁻¹]
1,G9C C10U A36U A48U C71G,< 1e-05
2,U30G U46C C68U,0.000214 ± 5.2e-05
3,A6G G38A G40A G60C,< 1e-05
4,A14U G32U C71A,7.15e-05 ± 2.1e-05
5,G41C U49A U65A,< 1e-05
6,G44A G51U U57A,< 1e-05
7,C8A U46G U55A,< 1e-05
8,U31A C70A,0.000146 ± 3e-05
9,G13C A15G C58A,0.000154 ± 2.6e-05
10,U31G A72G,0.00988 ± 0.0032
11,G7U G13A G38U A52C A53C,< 1e-05
12,G37U G40A G63A,< 1e-05
13,C34G G59A,< 1e-05
14,C10A G29C A42G U55C U56C C70U,< 1e-05
15,G35C G37A U49A A52G A53U U56G C61G,< 1e-05
16,C16U G32U U46G,0.000138 ± 2.5e-05
